From article PMC10876603 come the findings set out here.

The target of the test is microtubules (polymerised α/β-tubulin) (UniProt Q6B856).
Chain of UniProt Q6B856 (Q6B856 whole entry, looked up): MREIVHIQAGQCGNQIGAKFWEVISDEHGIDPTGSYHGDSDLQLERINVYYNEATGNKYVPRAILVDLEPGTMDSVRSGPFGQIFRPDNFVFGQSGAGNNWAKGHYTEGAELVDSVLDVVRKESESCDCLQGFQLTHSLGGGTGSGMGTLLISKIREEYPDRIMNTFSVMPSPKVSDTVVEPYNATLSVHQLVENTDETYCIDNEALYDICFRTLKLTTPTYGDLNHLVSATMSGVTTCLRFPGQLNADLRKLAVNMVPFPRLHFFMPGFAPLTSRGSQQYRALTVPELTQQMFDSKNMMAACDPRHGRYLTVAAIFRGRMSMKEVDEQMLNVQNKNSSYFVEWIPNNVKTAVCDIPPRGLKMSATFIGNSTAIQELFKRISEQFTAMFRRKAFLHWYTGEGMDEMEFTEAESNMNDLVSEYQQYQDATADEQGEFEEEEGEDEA

With “human CEN subcomplex with wild-type Borealin (CEN-Borealin^wt) (from UniProt Q9NQS7 1-58; O15392 1-142; Q53HL2 1-280)”, the width of bundles of GMpCpp-stabilized rhodamine-labeled MTs (100 nM) after 2 min with 4 μM CEN, TIRF microscopy (single GMpCpp MTs measure 0.34 μm) came to 0.46 μm.
